Test results reported in the nanobody polyreactivity screen of Harvey et al. (2022).

Experiment: yeast display, Sf9 membrane polyspecificity reagent, FACS + sequencing; frameworks hold sequencing errors
How it was run: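 Galactose-induced (36–48 hours) yeast carrying a synthetic nanobody display library were exposed to 10% biotinylated, detergent-solubilized Sf9 membrane reagent at 4 °C for 1 hour. FACS followed streptavidin microbead enrichment, using low and high (top ~1%) gates for expression (anti-HA) and reagent binding (streptavidin). Colony PCR, MiSeq 2 × 250 sequencing and CDR-length filtering followed. Labels for polyreactivity reflect the gate of origin.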

Sequence	polyreactivity (PSR sort gate)
QVQLVESGGGLVQAGVSLRLSCAASGYIIIVYTMGWYRQAPGKERELVAAISSGGITDYADSVKGRFTISRDNAKNTVYLQMNSLKPEDTAVYYWGQGTQVTVSS	low polyreactivity
QVQLVESGGGLVQAGVSLRLSCAAYGRIFGPYAMGWYRQAPGKERELVATITWRTGSTYYADSVKGRFTISRDNAKNTVYLQMNSLKPEDTAVYYCAARYGRYSKAGDYWGLGTQVTVSS	high polyreactivity
QVQLVESGGGLVQAGVSLRLSCVPPDLPSTLNVMGWYRQAPGKERELVAAITSSGGSTRYADCVKGRFTISRDNAKNTVYLQMNSLKPEDTAVYYCAASRDKYGNRVRPFDYWGQGTQVTVSS	low polyreactivity
QVQLVESGGGLVQARGSLRLSCAASGFGWYAMGWYRQAPGKEREFVAAISRGGGSTYYADSVKGRFTISRDNAKNTVYLQMNSLKQEDTAVYYCAAVYYRRISQGDTQTYYQYNYWGQGTKVTVSS	high polyreactivity
QVQLVESGGGLVQARGSLRLSCAASGFIFSYYAMGWYRQAPGKERELVAAISSSGGTTYADSVKGRFTISRDNAKNTVYLQMNSLKPEDTAVYYCARVQYWFYKPMYYWGQGTQVTVSS	high polyreactivity
QVQLVESGGGLVQARGSLRLSCAASGFTFDQYTMGWYRQAPGKERELVAAISSSGGSTYYADSVKGRFTISRDNAKKTVYLQMNSLKPEDTAVYYCAARFLLTQRFSHDYWGQGTQVTVSS	low polyreactivity
QVQLVESGGGLVQARGSLRLSCAASGGNISYNAMGRYRQAPGKEREFVASISSSGGRTYYADSVKGRFTISRDNAKNTVYLQMNSLKPEDTAVFYCNADAQVEYGLFGQGWVTSFDYWGEGTQVTVSS	low polyreactivity
QVQLVESGGGLVQARGSLRLSCAASGIIFSTYAMGWYRQAPGKERELVAAISASGVRTYYADSVKGRFTISRDNAKNTVYLQMNSLKPEDTAVYYCAVRGYPYLRYYWGQGTQVTVSS	high polyreactivity
QVQLVESGGGLVQARGSLRLSCAASGIIFYSYAMGWYRQAPGKEREFVAAITNSDGSTYYADSVKGRFTISRDNAKNTVYLQMNSLKPEDTAVYMYYWGQGTQVTVSS	low polyreactivity
QVQLVESGGGLVQARGSLRLSCAASGLIFYGNAMGWYRQAPGKERELVAAISRRGGRTYYADSVKGRFTISRDNAKNTVYLQMNSLKPEDTAVYYCAKRYKSIPRYWSKEYDYWGQGTQVTVSS	high polyreactivity
QVQLVESGGGLVQARGSLRLSCAASGNIFYRYAMGWYRQATGKERELVAAISFSGGGTYYADSVKGRFTISRDNAKNTVYLQMNSLKPEDTAVYYCAAYRRGCYDYWGQGTQVTVSS	high polyreactivity
QVQLVESGGGLVQARGSLRLSCAASGRIFFRNAKGWYRQAPGKERELVAAITYSGGSTYYADSVKGRFTISRDNAKNTVYLQMNSLKPEDTAVYYCGAGYWFSYSRVTRYDYWGQGTQVTVSS	high polyreactivity
QVQLVESGGGLVQARGSLRLSCAASGRSFVINAMGWYRPAPGKERELVAGITSSGNTNYADSVKGRFTISRDNAKNTVYLQMNSLKPEDTAVYDCNAQVYLTWLTYWLYYPPNDYWGQGTQVTVSS	low polyreactivity
QVQLVESGGGLVQARGSLRLSCAASGRTFAIYAMGWYRPAPGKEREFVAAISWSGGDTYYADSVKGRFTISRDNAKNTVYLQMNSLKPEDTAVYYCAARDNDYEGRDLQYELDYWGQGSQVTVSS	low polyreactivity
QVQLVESGGGLVQARGSLRLSCAASGRTFVVYDMGWYRPAPGKERALVAAITWSGGSTYYADSVKGRFTSSRDTAKNTVYLQMHSLKPEDTAVYYCAAGYYYFWTYAYWGQGTQVTVSS	low polyreactivity
QVQLVESGGGLVQARGSLRLSCAASGRTVTYYAMGWYRQAPGKERELVAAISSGDSTYYADSVKGRFTISRDNAKNTVYLQMNSLKPEDTAVYYCAVDHVSRYYGYPEITYDYWGQGTQVSVSS	low polyreactivity
QVQLVESGGGLVQARGSLRLSCAASGSIFAQYAMGWYRQAPGKERELVAAITRSTGRTYYADSVKGRFTISRDNANNTVYLQMNSLKPEDTSVYYGNARQRQSKYYPYTTFTYDYWGQGTQVTVSS	high polyreactivity
QVQLVESGGGLVQARGSLRLSCAASGSIFDGNAMGWYRQAPGKERELVAAITWRGTRTYYADSVKGRFTISRDNAKNTVYLQMNSLKPEDTAVYYCNKKWYPYLEHDYWGQGTQGTVSS	high polyreactivity
QVQLVESGGGLVQARGSLRLSCAASGSIFRGYGMRRYIQAPGKERELVAAINYSGGSTYYADSVKGRFTISRDNAKNTVYLQMNSLKPEDTGVYYCNNDYYRQRGEYYYWGQGTQVTVSS	high polyreactivity
QVQLVESGGGLVQARGSLRLSCAASGSIFRKYAMGWYRQAPGKERELVAVITTDGSTNYADSVKGRFTISRDNAKNTVYLQMNSLKPEDTAVYYCNAVRSSIGTDNVYWGLGTQVTVSS	low polyreactivity
QVQLVESGGGLVQARGSLRLSCAASGSIFYPYAMGWYRQAPGKERELVAGISRSGASTYYADSVKGRFTISRDNAKNTVYLQMNSLKPEDTAVYYCAADDWTRNYWGQGTQVTVSS	low polyreactivity
QVQLVESGGGLVQARGSLRLSCAASGSTFIRYAMGWYRQAPGKERELVAAITWRGGSTYYADSVKGRFTISRDNAKNTVYLQMNSLKPEDTAVYYCAARDRDTRNYYWGQGTQGTVSS	high polyreactivity

Sequence	polyreactivity (PSR sort gate)
QVQLVESGGGLVQARGSLRLSCAASGSTFSRNVMGWYRQATGKERELVAAISRGGSTNYADSVKGRFTISRDNAKNTVYLQMNSLKPEDTAVDYCAARSYGSTGPHGLKWVSYDYWGQGTQVTVSS	low polyreactivity
QVQLVESGGGLVQARGSLRLSCAASGSTSDINAMGWYRHAPGKARELVAVITDSSNTDYADSVKGRFTISRDNAKNTVYLQMNSLKPEDTAVYYCARDDATAGDYWGQGTQVTVSS	low polyreactivity
QVQLVESGGGLVQARGSLRLSCAASRLIFTWYAMRWSRHAPGKERELVAAISWSDDSTNYADSVKGRFTISRDNAKNTVYLLMNSLKPEDTAVYYCATQLDYGGRVGDADDYWGQGTQVTVSS	low polyreactivity
QVQLVESGGGLVQARGSLRLSCAGSGSTLPSYAMGWYRQAPGKERELVAAISSSGGRTYYADSVKGRFTISRDNAKNTVYLLMNSLKPEDTAVYYCAALSVANYHGTDSGYWGQGTQVTVSS	high polyreactivity
QVQLVESGGGLVQARGSLRLSCASSGFIFSRYAMGWYRQAPGKESELVAAITSGGSTYYADSVKGRFTISRDNAKNTVYLQMNSLKPEDTAVYYCNVVSKSRISQYVGYSYDYWGQGTQVTVSS	high polyreactivity
QVQLVESGGGLVQARGSLRLSCASSGITFWKYTMGCYRQAPGKESELVASIRIGGSTYYADSVKGRFTISRDNAKNTVYLQMNSLKPEDTAVYYCAAKGIYGLQGSPRSGYYYWGQGTQVTVSS	high polyreactivity
QVQLVESGGGLVQARGSLRLSCPASGLIFPAYAMGWYRQAPGKERELVATITWRGGSTYYADSVKGRFTISRDNAKNTVYLQMNSLKPEDTAVYYCATRPRYYYFRYDYWGQGTQVTVSS	high polyreactivity
QVQLVESGGGLVQARGSLSLSCAASGSIFYYNAIGWYRQPPGKERELVATITSAVSTNYADSVKGRFTISRANAKNPVYLQMNSLKPEDTAVYYCAADDYQVQYDYWGQGTQVTVSS	low polyreactivity
QVQLVESGGGLVQARGSLSLSCAATGSTSYINAMGWSSQAPWKERELVAAIRSGGSTKYADSVKGRFTISRDNAKNTVYLQMNSVLPEDSSVYYCAARNVYKTSGFRWVWNYDYWGQGTQVTVSS	high polyreactivity
QVQLVESGGGLVQAVGSHRLSSAASGFIFDYNAMGWYRQEPVKVRELVAAISVSDDSTYYADSVKGRFTISRDNAKNTVYLQLNSLKPEVPAGYYCAAEWWDVIAPYDYWGLGTQVTVSS	low polyreactivity
QVQLVESGGGLVQAVGSHRLSSAASGFTFRWYTMGWYRQAPGKERELVASIRYGGGSTYYADSVKGRFTISRDNAKNTVYLQMNCLKPEDTAVYYCAAESAWTSPYDYWGQGTQVTVSS	high polyreactivity
QVQLVESGGGLVQAVGSLRLSCAASGFTIIDNAMGWYRQARGKERELVAAISISGGRTYYADSVKGRFTISRDNAKNTVYLQMNSLKPEDTAVYYCAAGKHRRDDYCGQGTQVTVSS	high polyreactivity
QVQLVESGGGLVQAVGSLRLSCAASGLIFFYYSMGWYRPAPGKERELVAAIRTNYADSVKGRFTISRDNAKNTVYLQMNSLKREDTAAYYCAAESSQTPTSAFDYWGQGTQVTVSS	low polyreactivity
QVQLVESGGGLVQAVGSLRLSCAASGLTFYSNAMGWYRQAPGKERELVATISQDGGRTYADSLKGRFTISRDNAKNTVYLQMNSLKPEDTAVYYCAKVRERINYDYWGQGTQVTVSS	low polyreactivity
QVQLVESGGGLVQAVGSLRLSCAASGRIFGPNAMGWYRQAPGKERELVAAITGSGGSTYADSVKGRFTISRDNAKNTVYLQMNSLKPEDTAVYYCAKKTWYSYDWGQGTQVTVSS	high polyreactivity
QVQLVESGGGLVQAVGSLRLSCAASGRIFGYYVMGWYRQAPGKERELVAAITSNGGSTYYADSVKGRFTFSRDNAKNTVYLQMNSLKPEDTAVYYGNKDKRYYRYGYWGQGTQVTVSS	high polyreactivity
QVQLVESGGGLVQAVGSLRLSCAASGRTFQSYTMGWYRQAPGKEREFVAAFRDSGGSTYYADSVKGRFTISRDNAKNTVFLQMNSLKPEDTAVYYCAAYRPRKYDYWGQGTQVTVSS	high polyreactivity
QVQLVESGGGLVQAVGSLRLSCAASGRTFYGYALGWYRQQPGKVSELVAAISADTGRTRYADSVKGRFTISRDNAKNTVYLQMICLNPEDTAVYYCATRLFPQSRYYYWGQGTQVTVSS	high polyreactivity
QVQLVESGGGLVQAVGSLRLSCAASGSIFAVNTIGWYRQAPGKERELVASISQRGSSTYYADSVKGRFTISRDIAKNTVYLQMNSLIPEDTAVYYCAVVQRYWYAGIVPYDYWGQGTQVTVSS	high polyreactivity
QVQLVESGGGLVQAVGSLRLSCAASGSIFGAYAMGWYRQAPGKERELVAAITSGGSTNYADSVKGRFTISRDNAKNTVYLQMNSLKPEDTAVYYCAARRRYAKFRYDYWGQGTQVTVSS	high polyreactivity
QVQLVESGGGLVQAVGSLRLSCAASGSILASNAMGWYRQAPGKERELVAAITTSGGSTYYADSVKGRFTISRDNAKNTVYLQMNSLKPEDTAVYYCNAEYWLGRWLRYGYWGQGTQVTVSS	high polyreactivity
